Patent US20240301052A1 (LANOVA MEDICINES DEVELOPMENT, published 2024)
Read-outs that look alike come from different tables or passages of the source. Each block holds one binder with its values, some of them ahead of it.

What was measured:
[1] = target: T1, human SLC34A2 (human, UniProt O95436 1-690); experiment: FACS, OVCAR3 cells
T1 construct: whole, on cells; also called human solute carrier 34 A2; NaPi2b
T1 sequence (looked up): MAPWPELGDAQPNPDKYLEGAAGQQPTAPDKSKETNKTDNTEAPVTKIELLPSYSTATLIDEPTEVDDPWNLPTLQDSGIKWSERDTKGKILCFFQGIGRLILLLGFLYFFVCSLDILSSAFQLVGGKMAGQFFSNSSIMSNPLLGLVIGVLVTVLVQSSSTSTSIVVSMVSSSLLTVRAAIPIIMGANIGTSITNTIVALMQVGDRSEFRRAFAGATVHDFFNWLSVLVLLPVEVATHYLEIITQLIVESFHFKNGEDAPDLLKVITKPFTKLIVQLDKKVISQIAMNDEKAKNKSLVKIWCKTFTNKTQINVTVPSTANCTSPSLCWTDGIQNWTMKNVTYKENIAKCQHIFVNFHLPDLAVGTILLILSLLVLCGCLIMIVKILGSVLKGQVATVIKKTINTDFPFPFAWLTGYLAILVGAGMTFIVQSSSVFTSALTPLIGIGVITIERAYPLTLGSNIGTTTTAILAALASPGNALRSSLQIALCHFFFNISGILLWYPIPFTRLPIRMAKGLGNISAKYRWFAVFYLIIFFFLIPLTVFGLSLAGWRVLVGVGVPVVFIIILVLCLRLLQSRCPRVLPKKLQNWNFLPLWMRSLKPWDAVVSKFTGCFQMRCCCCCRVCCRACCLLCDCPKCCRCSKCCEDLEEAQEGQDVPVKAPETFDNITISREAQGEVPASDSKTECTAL

[2] = target: T1, human SLC34A2; experiment: FACS, OVCAR3 cells; remark: listed apart in the source
Method: (§1) In another testing, cell based binding of hu Abs on human SLC34A2 expressing cells were assessed using flow cytometry. Briefly, the HEK293/H_SLC34A2, OVCAR3 and RMG-1 cells were incubated with hu Abs. After incubation at 4° C. for 60 minutes, the cells were washed with FACS buffer twice, then stained with fluorescent conjugated secondary antibody at 4° C. for 30 minutes. After that the cells were washed twice and analyzed by flow cytometry.

[3] = target: T1, human SLC34A2; experiment: cell-based or functional assay
[4] = target: T2, Rhesus SLC34A2 (Rhesus, UniProt F7HDA3 1-690); experiment: FACS, HEK293/Rhesus SLC34A2 cells
T2 construct: whole, on cells
T2 sequence: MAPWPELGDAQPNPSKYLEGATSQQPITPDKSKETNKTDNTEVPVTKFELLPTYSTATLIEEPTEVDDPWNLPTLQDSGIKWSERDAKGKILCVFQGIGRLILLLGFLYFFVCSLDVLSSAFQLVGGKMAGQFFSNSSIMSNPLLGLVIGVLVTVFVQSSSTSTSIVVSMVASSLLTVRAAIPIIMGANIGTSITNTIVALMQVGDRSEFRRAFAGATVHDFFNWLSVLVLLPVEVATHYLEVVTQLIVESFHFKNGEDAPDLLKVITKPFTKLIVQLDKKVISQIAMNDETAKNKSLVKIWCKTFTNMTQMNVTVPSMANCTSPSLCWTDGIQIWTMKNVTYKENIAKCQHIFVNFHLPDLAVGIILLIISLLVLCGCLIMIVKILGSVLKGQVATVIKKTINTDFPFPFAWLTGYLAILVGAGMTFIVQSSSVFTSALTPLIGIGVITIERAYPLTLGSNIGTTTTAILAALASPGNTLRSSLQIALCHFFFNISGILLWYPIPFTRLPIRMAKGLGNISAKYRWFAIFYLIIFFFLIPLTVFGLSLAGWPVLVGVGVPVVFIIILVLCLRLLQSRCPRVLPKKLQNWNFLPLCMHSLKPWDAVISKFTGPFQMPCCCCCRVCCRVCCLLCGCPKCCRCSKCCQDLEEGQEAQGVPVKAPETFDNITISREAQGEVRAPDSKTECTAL

[5] = target: T1, human SLC34A2; experiment: FACS, RMG-1 cells
Method: as §1

[6] = target: T1, human SLC34A2; experiment: FACS, HEK293/human SLC34A2 cells
Method: as §1

[7] = target: T1, human SLC34A2; experiment: FACS, HEK293/human SLC34A2 cells; remark: listed apart in the source
Method: The PTM-derisked VH chains were first tested for their impact on target binding. Cell based binding of PTM Abs on human SLC34A2 expressing cells were assessed using flow cytometry. Briefly, the HEK293/H_SLC34A2 cells were incubated with PTM Abs (from 200 nM, 4 folds dilution, 8 points). After incubation at 4° C. for 60 minutes, the cells were washed with FACS buffer twice, then stained with fluorescent conjugated secondary antibody at 4° C. for 30 minutes. After that the cells were washed twice and analyzed by flow cytometry.

[8] = target: T1, human SLC34A2; experiment: FACS, OVCAR3 cells; remark: listed apart in the source
Method: The binding of these humanized antibodies to OVCAR3 cells was evaluated as described above, and the results are shown in FIG. 12A-D and Tables 16A-D.

[9] = target: T2, Rhesus SLC34A2; experiment: FACS, HEK293/Rhesus SLC34A2 cells; remark: listed apart in the source
[10] = target: T1, human SLC34A2; experiment: FACS, OVCAR3 cells; remark: listed apart in the source
[11] = target: T1, human SLC34A2; experiment: FACS, OVCAR3 cells; remark: listed apart in the source

EC50 [1]: 9.1 nM
Top (MFI) [1]: 72500 MFI
EC50 [2]: 6.98 nM
ADCC reporter EC50 [3]: 4.23 nM
ADCC reporter Top (MFI) [3]: 122000 MFI
EC50 [4]: 4.3 nM
Top (MFI) [4]: 36500 MFI
EC50 [5]: 14.8 nM
Top [5]: 11200 MFI
EC50 [6]: 9.08 nM
Top [6]: 35700 MFI
EC50 [7]: 2.73 nM
Top (MFI) [7]: 30800 MFI
EC50 [8]: 6.98 nM
Top (MFI) [8]: 30300 MFI
EC50 [9]: 5 nM
Top (MFI) [9]: 14400 MFI
B1: 62G10E4G8 VH_P3/VL hIgG1 (antibody, V domains shown)
VH: QVQLQQSGAEVVKPGASVKMSCKASGYTFPSYITHWVKQTPGQGLEWIGAIYPGNADTSYIQKFKGKATLTADKSSSTAYMQLSSLTSEDSAVYYCARGTYGTSAWFTYWGQGTLVTVSA
VL: DIVLTQSPATLSVTPGDSVSLSCRARQNIGNNLYWYQQKSHESPRLLIKYASQSISGIPSRFSGSGSGTDFTLTINSVETEDFGVYFCQQSFSWPLTFGAGTKLELK
notes: PTM-derisked chimeric, hIgG1; that P3 is the NA version follows from the humanized .p3 chains; also called 62G10E4G8.p3 hIgG1

EC50 [1]: 7.5 nM
Top (MFI) [1]: 75200 MFI
EC50 [2]: 4.03 nM
ADCC reporter EC50 [3]: 2.83 nM
ADCC reporter Top (MFI) [3]: 114000 MFI
EC50 [4]: 3.9 nM
Top (MFI) [4]: 39400 MFI
EC50 [5]: 12.5 nM
Top [5]: 11700 MFI
EC50 [6]: 2.79 nM
Top [6]: 35600 MFI
EC50 [10]: 4.03 nM
Top (MFI) [10]: 28200 MFI
EC50 [7]: 1.48 nM
Top (MFI) [7]: 30400 MFI
EC50 [9]: 0.7 nM
Top (MFI) [9]: 13800 MFI
B2: 63A11D5B4 VH_P1/VL hIgG1 (antibody, V domains shown)
VH: QVQLQQPGAELVKPGASVKMSCRTSGYTFITYNMHWVKQTPGQGREWIGAIYPGSGDTSYNQKFKGKATLTADKSSSTAYMQLNSLTSEDSAVYYCSISTIITTGAVDYWGQGTSVTVAS
VL: DIVMTQSHKFMSTSVGDRVSITCKASQDVGTAVAWYQQKAGQSPKLLIYWTSTRHTGVPDRFTGSGSGTDFTLIIRSLQSEDLADYFCQQYSRIPLTFGSGTKLEIK
notes: PTM-derisked chimeric, hIgG1; that P1 is the SG version follows from the humanized .p1 chains; also called 63A11D5B4.p1 hIgG1

EC50 [1]: 1 nM
Top (MFI) [1]: 63500 MFI
EC50 [2]: 1.1 nM
Top [2]: 19500 MFI
ADCC reporter EC50 [3]: 3.31 nM
ADCC reporter Top (MFI) [3]: 143000 MFI
EC50 [4]: 2.8 nM
Top (MFI) [4]: 26400 MFI
EC50 [5]: 1.09 nM
Top [5]: 9690 MFI
EC50 [6]: 2.29 nM
Top [6]: 32300 MFI
EC50 [11]: 2.29 nM
Top (MFI) [11]: 32300 MFI
EC50 [7]: 0.68 nM
Top (MFI) [7]: 28200 MFI
EC50 [9]: 0.8 nM
Top (MFI) [9]: 7970 MFI
B3: 91C9F1.p1 hIgG1 (antibody, V domains shown)
VH: EVQLQQSGPELVKPGTSVKISCKTSGFFFTEYIIHWVKQSHGRSLEWIGGIIPNNDVTNYKQNFRGKAALTADKSSNTAYMELRSLTSEDSAVYYCARWRNAYYSAMDSWGQGTSVTVSS
VL: DIVVTQSHKFMSTSLGDRVSITCTASQDVGTAVAWYQQKPGHSPKLLIYWASTRHTGVPERFTGSGSGTDFTLTITNVQSEDLADYFCQQYRTSPLTFGVGTKLELK
notes: PTM-derisked chimeric, hIgG1; also called 91C9F1.pl hIgG1
